Data set [1] relates to HeLa Kyoto. The data set can be described thus: solubility in G1/S (NP-40 vs SDS abundance) (log2 ratio); higher = more soluble. The settings on record: cell cycle stage: G1/S.
The test system of data set [2] is HeLa Kyoto. The data set can be described thus: melting temperature (median over replicates), in situ; higher = more thermally stable.
In data set [3] the test system is HeLa Kyoto. The experiment in a line: solubility change mitosis vs G1/S (difference of NP-40 vs SDS log2 ratios) (log2 ratio difference); higher = more soluble in mitosis.
Data set [4] has as its system HeLa Kyoto. The experiment in a line: thermal stability score vs G1/S (z-score of summed log2 fold changes over temperatures); higher = more thermally stable than in G1/S.
Where [5] appears, read: cell cycle stage: early G1 (4.5 h after nocodazole release).
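Throughout, for melting temperature (median over replicates), in situ: HeLa Kyoto cells synchronized by double thymidine or nocodazole block, proteins quantified by TMT10plex mass spectrometry, three independent biological replicates.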
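Throughout, for solubility change mitosis vs G1/S (difference of NP-40 vs SDS log2 ratios): synchronized HeLa Kyoto cells (double thymidine block for G1/S, nocodazole release for mitosis), protein amounts in NP-40 versus SDS lysates quantified by mass spectrometry, three biological replicates.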
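Throughout, for solubility in G1/S (NP-40 vs SDS abundance): HeLa Kyoto cells arrested at G1/S by double thymidine block, proteins quantified by TMT10plex mass spectrometry in mild NP-40 versus SDS extracts, three biological replicates.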
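Throughout, for thermal stability score vs G1/S (z-score of summed log2 fold changes over temperatures): synchronized HeLa Kyoto cells, proteins quantified by TMT10plex mass spectrometry, three biological replicates, mitosis taken 0.5 h after nocodazole release, G1/S directly after double thymidine block.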

As for “MAGKKVLIVYAHQEPKSFNGSLKNVAVDELSRQGCTVTVSDLYAMNLEPRATDKDITGTLSNPEVFNYGVETHEAYKQRSLASDITDEQKKVREADLVIFQFPLYWFSVPAILKGWMDRVLCQGFAFDIPGFYDSGLLQGKLALLSVTTGGTAEMYTKTGVNGDSRYFLWPLQHGTLHFCGFKVLAPQISFAPEIASEEERKGMVAAWSQRLQTIWKEEPIPCTAHWHFGQ [NQO2]”, in the data set with HeLa Kyoto [1], the “solubility in G1/S (log2)” value stood at 0.396. For the same sequence, the melting temperature with HeLa Kyoto [2] (cell cycle stage: G1/S) came out at 59 °C; with HeLa Kyoto [2] (cell cycle stage: mitosis) it was 62 °C. Further, the “solubility change mitosis (log2)” value with HeLa Kyoto [3] was -0.0114. Also, the thermal stability score in the data set with HeLa Kyoto [4] (setting [5]) was -1.69; in the data set with HeLa Kyoto [4] (cell cycle stage: mitosis) it was -2.35.
With “MAGKQAVSASGKWLDGIRKWYYNAAGFNKLGLMRDDTIYEDEDVKEAIRRLPENLYNDRMFRIKRALDLNLKHQILPKEQWTKYEEENFYLEPYLKEVIRERKEREEWAKK [UQCRB]”, the “solubility in G1/S (log2)” value in the data set with HeLa Kyoto [1] is -0.132. For the same sequence, the melting temperature in the data set with HeLa Kyoto [2] (cell cycle stage: G1/S) was found to be 53.9 °C; in the data set on HeLa Kyoto [2] (cell cycle stage: mitosis), 52.2 °C. For the same sequence, in the data set on HeLa Kyoto [3], the “solubility change mitosis (log2)” value was 0.253. The thermal stability score was -3.18 in the data set with HeLa Kyoto [4] (setting [5]) and -2.78 with HeLa Kyoto [4] (cell cycle stage: mitosis).
Consider “MAGLGHPAAFGRATHAVVRALPESLGQHALRSAKGEEVDVARAERQHQLYVGVLGSKLGLQVVELPADESLPDCVFVEDVAVVCEETALITRPGAPSRRKEVDMMKEALEKLQLNIVEMKDENATLDGGDVLFTGREFFVGLSKRTNQRGAEILADTFKDYAVSTVPVADGLHLKSFCSMAGPNLIAIGSSESAQKALKIMQQMSDHRYDKLTVPDDIAANCIYLNIPNKGHVLLHRTPEEYPESAKVYEKLKDHMLIPVSMSELEKVDGLLTCCSVLINKKVDS [DDAH1]”, for which, in the data set on HeLa Kyoto [1], the “solubility in G1/S (log2)” value amounted to 0.157. The melting temperature in the data set with HeLa Kyoto [2] (cell cycle stage: G1/S) came out at 55.3 °C; in the data set with HeLa Kyoto [2] (cell cycle stage: mitosis), 56.1 °C. Also, the “solubility change mitosis (log2)” value with HeLa Kyoto [3] was determined as 0.0143. In addition, the thermal stability score with HeLa Kyoto [4] (setting [5]) was 0.276; in the data set with HeLa Kyoto [4] (cell cycle stage: mitosis) it was -0.764.
For “MAGPAWISKVSRLLGAFHNPKQVTRGFTGGVQTVTLIPGDGIGPEISAAVMKIFDAAKAPIQWEERNVTAIQGPGGKWMIPSEAKESMDKNKMGLKGPLKTPIAAGHPSMNLLLRKTFDLYANVRPCVSIEGYKTPYTDVNIVTIRENTEGEYSGIEHVIVDGVVQSIKLITEGASKRIAEFAFEYARNNHRSNVTAVHKANIMRMSDGLFLQKCREVAESCKDIKFNEMYLDTVCLNMVQDPSQFDVLVMPNLYGDILSDLCAGLIGGLGVTPSGNIGANGVAIFESVHGTAPDIAGKDMANPTALLLSAVMMLRHMGLFDHAARIEAACFATIKDGKSLTKDLGGNAKCSDFTEEICRRVKDLD [IDH3A]”, in the data set on HeLa Kyoto [1], the “solubility in G1/S (log2)” value stood at 0.45. Besides, the melting temperature in the data set with HeLa Kyoto [2] (cell cycle stage: G1/S) is 54.5 °C; in the data set with HeLa Kyoto [2] (cell cycle stage: mitosis), 54.6 °C. For the same sequence, the “solubility change mitosis (log2)” value in the data set on HeLa Kyoto [3] is -0.00106. The thermal stability score in the data set on HeLa Kyoto [4] (setting [5]) is -0.172; with HeLa Kyoto [4] (cell cycle stage: mitosis) it was -1.18.
Turning to “MAGPRGALLAWCRRQCEGYRGVEIRDLSSSFRDGLAFCAILHRHRPDLLDFDSLSKDNVFENNRLAFEVAEKELGIPALLDPNDMVSMSVPDCLSIMTYVSQYYNHFCSPGQAGVSPPRKGLAPCSPPSVAPTPVEPEDVAQGEELSSGSLSEQGTGQTPSSTCAACQQHVHLVQRYLADGRLYHRHCFRCRRCSSTLLPGAYENGPEEGTFVCAEHCARLGPGTRSGTRPGPFSQPKQQHQQQLAEDAKDVPGGGPSSSAPAGAEADGPKASPEARPQIPTKPRVPGKLQELASPPAGRPTPAPRKASESTTPAPPTPRPRSSLQQENLVEQAGSSSLVNGRLHELPVPKPRGTPKPSEGTPAPRKDPPWITLVQAEPKKKPAPLPPSSSPGPPSQDSRQVENGGTEEVAQPSPTASLESKPYNPFEEEEEDKEEEAPAAPSLATSPALGHPESTPKSLHPWYGITPTSSPKTKKRPAPRAPSASPLALHASRLSHSEPPSATPSPALSVESLSSESASQTAGAELLEPPAVPKSSSEPAVHAPGTPGNPVSLSTNSSLASSGELVEPRVEQMPQASPGLAPRTRGSSGPQPAKPCSGATPTPLLLVGDRSPVPSPGSSSPQLQVKSSCKENPFNRKPSPAASPATKKATKGSKPVRPPAPGHGFPLIKRKVQADQYIPEEDIHGEMDTIERRLDALEHRGVLLEEKLRGGLNEGREDDMLVDWFKLIHEKHLLVRRESELIYVFKQQNLEQRQADVEYELRCLLNKPEKDWTEEDRAREKVLMQELVTLIEQRNAIINCLDEDRQREEEEDKMLEAMIKKKEFQREAEPEGKKKGKFKTMKMLKLLGNKRDAKSKSPRDKS [MICALL1]”, in the data set on HeLa Kyoto [1], the “solubility in G1/S (log2)” value was found to be 0.417. The figures for the melting temperature in the data set with HeLa Kyoto [2] (cell cycle stage: G1/S) and in the data set with HeLa Kyoto [2] (cell cycle stage: mitosis) were 49.4 °C and 50.5 °C, respectively. Moreover, the “solubility change mitosis (log2)” value in the data set with HeLa Kyoto [3] was -0.0692. Further, the thermal stability score in the data set with HeLa Kyoto [4] (setting [5]) was -0.815; with HeLa Kyoto [4] (cell cycle stage: mitosis), 1.14.
